The values below come from PMC4798592.

pKd: −log10 of the molar value.

Common to all, as to conditions: EMSA: 20 mM phosphate pH 8.0, 100 mM NaCl, 5% glycerol, with or without TX-100, 0.1 nM 32P-DNA, 20 min on ice, 6% native PAGE
Data set [1] has as its system rSarA (Staphylococcus aureus). In words: EMSA.
Data set [2] concerns C9W (rSarA C9W) (Staphylococcus aureus). The experiment in a line: EMSA.
Data set [3] relates to rSarA (Staphylococcus aureus). The experiment in a line: EMSA. This is another data set of the same source.
The subject of data set [4] is C9W (rSarA C9W) (Staphylococcus aureus). In words: EMSA. This is another data set of the same source.
For data set [5], the system named is rSarA (Staphylococcus aureus). In words: EMSA. This is another data set of the same source.
The test system of data set [6] is C9W (rSarA C9W) (Staphylococcus aureus). The experiment in a line: EMSA. The source holds these as a separate data set.
Data set [7] concerns rSarA (Staphylococcus aureus). The experiment in a line: EMSA. This is another data set of the same source.
Data set [8] has as its system C9W (rSarA C9W) (Staphylococcus aureus). The experiment in a line: EMSA. The source holds these as a separate data set.
The target in data set [9] is T1, rSarA (Staphylococcus aureus) (UniProt A6QES8).
T1 sequence: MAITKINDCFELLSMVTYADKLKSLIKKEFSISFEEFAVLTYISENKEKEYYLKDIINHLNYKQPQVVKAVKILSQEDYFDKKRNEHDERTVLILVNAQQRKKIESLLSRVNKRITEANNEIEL
In words: DNase I footprinting.

With hla promoter DNA, the pKd in data set [1] was 7.30; in [2] it was 7.01; in data set [3] it was 7.70; in [4] it was 7.22; in data set [5], 7.46; in data set [6], 6.40. Moreover, the pKd in [7] was 6.44; in data set [8], 7.24.

On to “CTATTAGATATTTCTATGTAATGGCAAAATTTATTCCCGACGAAATTCCAAACATAATTAATACCCTTTTTCTCTATTTCTATTTATTAATTTACACTAGTTAATATATAGTTAATTTTTATTTAATAGTTAATTAATTGATTTAATTCTAAGATATTTGTATTTTTATATTGTAATCGATTACATTTTTAAATCAAACAAATCATTAGTTTTAAAGAAATTAATCAATAAAATTAGCTATGT (double strand) [hla promoter DNA, bottom strand labelled (footprinting)]”, for which the binding result in data set [9] is given as “binds”.
